Changes are numbered by the printed parent chain. Names may count otherwise.
B1: NORI-006 (antibody, human IgG4 S228P, kappa, V domains shown)
VH: EVQLVESGGGLIKPGRSLRLSCTGSGFTFGDFGLSWFRQAPGKGLEWISFIRSKPYGGTTDYAASVKGRFTISRDDSKNVAYLQMNSLKTEDTAVYYCARNEILTGYYIFDYWGQGTLVTVSS
VL: DIQMTQSPSSLSASLGDRVTITCQASQDINNYLNWYQVQPGKAPKLLIFDASILETGVPSRFSGSGSGTDFSFTISSLQPEDIATYYCQQYDNLPLTFGGGTKVDFKR
notes: human IgG4PE, kappa
B2: NORI-003 (antibody, human IgG4 S228P, kappa, V domains shown)
VH: EVQLVESGGGLVKPGRSLRLSCTGSGFTFGDFGMSWFRQAPGKGLEWVGFIRSKPYGGTTDYAPSVRGRFSISRDDSKGIVYLQMNSLRTEDTAVYYCSRNEILTGYYIFDYWGQGTLVTVSS
VL: B1 VL with Q27H, N30T, N34I, V38Q, Q39K, K45R, S72T, I83F, D92Y, F106I
notes: human IgG4PE, kappa; NORI-002 with the free cysteine of the VH domain mutated (printed as 'C49C')
B3: NORI-011 (antibody, human IgG4 S228P, lambda)
heavy: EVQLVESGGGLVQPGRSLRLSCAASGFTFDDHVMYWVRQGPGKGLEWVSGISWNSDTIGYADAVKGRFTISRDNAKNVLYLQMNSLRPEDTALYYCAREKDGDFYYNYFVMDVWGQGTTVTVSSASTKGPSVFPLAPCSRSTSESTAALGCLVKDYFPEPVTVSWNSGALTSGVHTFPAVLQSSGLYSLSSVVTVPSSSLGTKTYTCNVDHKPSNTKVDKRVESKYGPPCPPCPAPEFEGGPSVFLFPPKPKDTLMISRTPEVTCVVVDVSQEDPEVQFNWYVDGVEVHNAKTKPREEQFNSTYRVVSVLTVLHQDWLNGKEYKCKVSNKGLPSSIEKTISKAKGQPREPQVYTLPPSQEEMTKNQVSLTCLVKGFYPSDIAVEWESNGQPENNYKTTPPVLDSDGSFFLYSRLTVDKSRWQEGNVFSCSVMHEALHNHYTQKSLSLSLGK
light: QSALTQPPSASGSPGQSVTISCTGTSSDVGFYNFVSWYQQHPDKAPKVMIYEVSKRPSGVPDRFSGSKSGNTASLTVSGLQAEDEADYYCSSYAGSNKVVFGGGTKLTVLGQPKAAPSVTLFPPSSEELQANKATLVCLISDFYPGAVTVAWKADSSPVKAGVETTTPSKQSNNKYAASSYLSLTPEQWKSHRSYSCQVTHEGSTVEKTVAPTECS
notes: human IgG4PE, lambda; NORI-010 with a P124S mutation in the VH domain
B4: NORI-008 (antibody, human IgG4 S228P, kappa, V domains shown)
VH: QVQLQESGPGLVKPSETLSLTCSVSGGSVSSGRYYWTWIRQPPGKGLEWIGYISNSGNTNYNPSLKSRVTISLDTSKKQFSLSLSAVTAADTAVYYCARGFIYDYWFDPWGQGSLVTVSS
VL: DSQMTQSPSSLSASVGDRVTITCQASQDIDNYLNWYQQRPGKAPKLLIYDASKLETGVPSRFSGSGSGTDFTFTISSLQPEDFATYYCQQYGNLPITFGQGTRLDIKR
notes: human IgG4PE, kappa, in the in vitro assays; a mouse IgG1 format was used in one in vivo study only; also called NORI-008 hulgG4PE; NORI-008 IgG

Biological target: T1, rat matriptase-2 ECD protein his tag (rat, UniProt Q9DBI0 80-811 (mouse entry))
T1 construct: aa 80-811 of NCBI XP_006242057.1 with C-terminal linker and His tag; also called rat MTP-2 ECD
T1 chain: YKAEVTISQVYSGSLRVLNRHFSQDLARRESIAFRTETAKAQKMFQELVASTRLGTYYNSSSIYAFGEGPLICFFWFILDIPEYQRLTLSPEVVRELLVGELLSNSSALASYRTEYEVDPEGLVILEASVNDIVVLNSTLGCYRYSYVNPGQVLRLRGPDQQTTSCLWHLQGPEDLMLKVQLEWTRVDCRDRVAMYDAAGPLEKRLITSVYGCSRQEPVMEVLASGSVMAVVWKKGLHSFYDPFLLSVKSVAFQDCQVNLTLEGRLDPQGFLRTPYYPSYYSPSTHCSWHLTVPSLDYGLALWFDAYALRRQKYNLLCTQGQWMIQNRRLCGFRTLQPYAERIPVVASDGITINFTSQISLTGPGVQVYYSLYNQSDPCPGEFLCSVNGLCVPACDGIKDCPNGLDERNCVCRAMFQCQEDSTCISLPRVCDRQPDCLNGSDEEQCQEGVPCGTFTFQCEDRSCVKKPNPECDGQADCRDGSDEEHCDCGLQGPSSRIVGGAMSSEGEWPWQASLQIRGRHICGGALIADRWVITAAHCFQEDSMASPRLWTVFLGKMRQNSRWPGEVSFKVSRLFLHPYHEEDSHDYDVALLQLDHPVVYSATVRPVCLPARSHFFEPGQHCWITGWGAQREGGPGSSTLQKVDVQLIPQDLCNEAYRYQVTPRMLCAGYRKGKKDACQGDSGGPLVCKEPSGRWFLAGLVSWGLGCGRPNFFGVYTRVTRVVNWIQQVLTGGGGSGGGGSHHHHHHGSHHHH
Assay: SPR, his-tagged MTP-2 ECD protein (Table W)
Method: (§1) Off-rate screening was performed by surface plasmon resonance (SPR), using a Biacore 8K system (GE Healthcare). Anti-human Fc mix (˜1000 RU) were immobilised in both active and reference channels in HBS-P+ buffer (GE BR100671) pH 7.4. Anti-MTP-2 hulgG4PE antibodies were then captured for 60 sec at 10 μl/min at 1 μg/ml concentration (approximatively 35 and 50 RU were captured) only on the active channel. MTP-2 ECD protein analytes were then injected (at 100, 25, 6.25, 1.56 and 0 nM concentrations) for 120 sec (association time) at 30 μl/min and dissociation monitored for 600 sec. Multiple cycle kinetics mode was used with all 8 channels being used. Reference and background were subtracted from the sensorgrams for each antibody and data was fitted using a 1:1 interaction model in the Biacore evaluation software. Rmax, ka, kd globally fitted, RI=0.
(§2) NORI-011, NORI-008, NORI-003 and NORI-006 were all found to have cross-reactive binding to human, mouse, cyno and rat MTP-2 ECD proteins. […] The true KD value for NORI-008 could not be measured accurately for human or mouse MTP-2 due to a very slow off-rate.

Point of comparison: B3, Kd 3.01 nM. Against it:
- B1 — 5-fold higher, 15.2 nM
- B2 — 6.4-fold higher, 19.2 nM
- B4 — 2.5-fold higher, 7.64 nM

The binders below were run against T2, mouse matriptase-2 ECD protein his tag (mouse, UniProt Q9DBI0 80-811) (assay: SPR, his-tagged MTP-2 ECD protein (Table W)).
T2 construct: aa 80-811 of Q9DBI0 with C-terminal linker and His tag; also called mouse MTP-2 ECD; moMTP-2
T2 sequence: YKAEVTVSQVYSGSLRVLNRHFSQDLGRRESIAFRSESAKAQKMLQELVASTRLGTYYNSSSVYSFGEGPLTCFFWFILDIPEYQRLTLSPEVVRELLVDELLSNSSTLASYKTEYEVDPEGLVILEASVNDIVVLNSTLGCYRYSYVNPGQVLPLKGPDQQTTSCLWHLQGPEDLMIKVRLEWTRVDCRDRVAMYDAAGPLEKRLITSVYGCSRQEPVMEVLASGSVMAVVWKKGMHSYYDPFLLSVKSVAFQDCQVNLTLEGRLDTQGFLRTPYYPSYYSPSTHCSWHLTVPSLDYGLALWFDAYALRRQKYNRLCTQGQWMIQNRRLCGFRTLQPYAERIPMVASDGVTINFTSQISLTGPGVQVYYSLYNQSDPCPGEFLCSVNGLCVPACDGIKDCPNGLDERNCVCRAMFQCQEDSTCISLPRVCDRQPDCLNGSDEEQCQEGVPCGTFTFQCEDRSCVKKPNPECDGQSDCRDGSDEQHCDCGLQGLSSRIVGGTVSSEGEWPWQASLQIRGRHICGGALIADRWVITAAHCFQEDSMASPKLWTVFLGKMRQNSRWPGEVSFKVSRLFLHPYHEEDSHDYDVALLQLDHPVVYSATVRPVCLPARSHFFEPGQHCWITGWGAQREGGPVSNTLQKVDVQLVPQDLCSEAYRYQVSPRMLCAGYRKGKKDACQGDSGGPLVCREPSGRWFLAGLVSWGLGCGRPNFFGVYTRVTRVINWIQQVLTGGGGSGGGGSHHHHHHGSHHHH
Method: as §1, §2

Point of comparison: B3, Kd 9 nM. Against it:
- B1 — 3-fold higher, 27 nM
- B2 — 3.2-fold higher, 28.9 nM

Biological target: T3, cyno matriptase-2 ECD protein his tag (cynomolgus, UniProt Q8IU80 84-811 (human entry))
T3 construct: aa 73-800 of A0A2K5VAP0 with C-terminal linker and His tag; also called cynomolgus MTP-2 ECD
T3 chain: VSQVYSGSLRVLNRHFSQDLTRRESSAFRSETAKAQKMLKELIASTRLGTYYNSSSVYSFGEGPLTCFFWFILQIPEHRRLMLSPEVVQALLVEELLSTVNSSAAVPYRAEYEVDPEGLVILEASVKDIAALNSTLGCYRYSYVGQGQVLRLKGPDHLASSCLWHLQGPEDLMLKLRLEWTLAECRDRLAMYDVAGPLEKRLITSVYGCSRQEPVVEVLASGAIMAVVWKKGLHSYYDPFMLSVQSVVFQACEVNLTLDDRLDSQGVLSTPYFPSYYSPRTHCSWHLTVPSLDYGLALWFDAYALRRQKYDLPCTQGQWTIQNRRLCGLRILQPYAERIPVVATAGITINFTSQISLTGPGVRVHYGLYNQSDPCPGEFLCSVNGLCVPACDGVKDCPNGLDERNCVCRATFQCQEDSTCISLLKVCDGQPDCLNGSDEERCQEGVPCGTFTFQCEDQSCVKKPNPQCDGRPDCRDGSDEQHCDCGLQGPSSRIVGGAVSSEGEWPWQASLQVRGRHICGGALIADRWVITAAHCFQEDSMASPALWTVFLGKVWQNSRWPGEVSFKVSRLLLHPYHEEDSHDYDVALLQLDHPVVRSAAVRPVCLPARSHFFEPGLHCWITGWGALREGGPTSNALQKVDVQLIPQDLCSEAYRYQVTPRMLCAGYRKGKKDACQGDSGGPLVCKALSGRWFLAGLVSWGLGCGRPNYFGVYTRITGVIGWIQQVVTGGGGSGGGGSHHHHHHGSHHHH
Assay: SPR, his-tagged MTP-2 ECD protein (Table W)
Method: as §1, §2

Point of comparison: B2, Kd 1.76 nM. Against it:
- B1 — 2.1-fold lower, 0.824 nM
- B3 — within 1.5-fold, 2.17 nM
- B4 — 170-fold lower, 0.0104 nM

Reference: patent publication US20230025129A1 (KYMAB, published 2023)
